Results from article PMC9483561 (The Journal of Biological Chemistry, 2022).

Target: integrin α5β1 ectodomain (α5 F1–Y954/β1 Q1–D708) (UniProt P08648;P05556)
Assay: fluorescence polarisation

integrin α5β1 ectodomain (α5 F1–Y954/β1 Q1–D708), sequence (P08648 42-995, chain 1 of 2): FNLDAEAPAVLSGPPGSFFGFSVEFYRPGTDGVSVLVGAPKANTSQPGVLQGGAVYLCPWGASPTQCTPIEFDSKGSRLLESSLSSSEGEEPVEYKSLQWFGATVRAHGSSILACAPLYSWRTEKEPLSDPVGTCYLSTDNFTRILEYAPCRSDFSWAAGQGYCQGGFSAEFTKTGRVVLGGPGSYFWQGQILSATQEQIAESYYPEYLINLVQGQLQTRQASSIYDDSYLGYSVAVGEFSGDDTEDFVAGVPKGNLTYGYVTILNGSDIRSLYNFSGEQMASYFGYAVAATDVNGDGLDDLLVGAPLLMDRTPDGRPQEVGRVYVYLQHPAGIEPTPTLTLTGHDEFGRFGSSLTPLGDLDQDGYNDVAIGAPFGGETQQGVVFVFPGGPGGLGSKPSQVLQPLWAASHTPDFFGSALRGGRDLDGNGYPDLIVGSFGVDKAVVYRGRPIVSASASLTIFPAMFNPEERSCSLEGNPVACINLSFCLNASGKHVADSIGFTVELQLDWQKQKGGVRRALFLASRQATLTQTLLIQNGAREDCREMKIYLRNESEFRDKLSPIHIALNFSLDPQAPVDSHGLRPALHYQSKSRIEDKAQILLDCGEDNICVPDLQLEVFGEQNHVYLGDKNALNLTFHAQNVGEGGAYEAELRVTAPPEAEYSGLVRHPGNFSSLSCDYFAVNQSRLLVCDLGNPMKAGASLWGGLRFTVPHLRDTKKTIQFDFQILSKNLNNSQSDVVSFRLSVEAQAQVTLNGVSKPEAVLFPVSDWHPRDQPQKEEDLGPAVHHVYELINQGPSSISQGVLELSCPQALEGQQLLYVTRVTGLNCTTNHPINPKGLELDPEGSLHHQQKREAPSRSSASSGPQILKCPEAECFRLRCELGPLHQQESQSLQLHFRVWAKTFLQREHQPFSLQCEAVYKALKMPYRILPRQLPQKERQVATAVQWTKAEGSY
integrin α5β1 ectodomain (α5 F1–Y954/β1 Q1–D708), sequence (P05556 21-728, chain 2 of 2): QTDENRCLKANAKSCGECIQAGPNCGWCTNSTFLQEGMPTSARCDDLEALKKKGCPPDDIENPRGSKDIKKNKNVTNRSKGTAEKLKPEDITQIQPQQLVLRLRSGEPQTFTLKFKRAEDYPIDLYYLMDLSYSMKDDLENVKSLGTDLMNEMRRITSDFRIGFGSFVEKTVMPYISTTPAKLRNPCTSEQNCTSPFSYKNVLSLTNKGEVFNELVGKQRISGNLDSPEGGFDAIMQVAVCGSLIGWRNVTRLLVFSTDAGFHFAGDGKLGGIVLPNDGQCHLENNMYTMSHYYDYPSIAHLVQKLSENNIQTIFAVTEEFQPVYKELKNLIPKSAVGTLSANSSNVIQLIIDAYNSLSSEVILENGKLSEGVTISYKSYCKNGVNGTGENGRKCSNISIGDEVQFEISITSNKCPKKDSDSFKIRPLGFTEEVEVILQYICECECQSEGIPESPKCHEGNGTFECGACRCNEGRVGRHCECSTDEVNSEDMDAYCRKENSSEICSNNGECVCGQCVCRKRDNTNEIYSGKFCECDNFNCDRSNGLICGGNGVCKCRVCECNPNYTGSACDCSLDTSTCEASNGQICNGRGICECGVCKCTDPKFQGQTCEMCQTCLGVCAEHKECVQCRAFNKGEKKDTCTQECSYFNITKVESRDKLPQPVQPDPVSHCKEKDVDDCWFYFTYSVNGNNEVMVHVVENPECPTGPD

binding result: binds
B1: fibronectin fragment Fn10 (V1416–T1509) (domain or fragment)
chain: not shown
